Source: patent US20200148757A1 (KOREA ADVANCED INSTITUTE OF SCIENCE AND TECHNOLOGY, published 2020)

B1: human P1GF (ligand)
chain: LPAVPPQQWALSAGNGSSEVEVVPFQEVWGRSYCRALERLVDVVSEYPSEVEHMFSPSCVSLLRCTGCCGDENLHCVPVETANVTMQLLKIRSGDRPSYVELTFSQHVRCECRPLREKMKPERCGDAVPRR
notes: also called PlGF; placental growth factor
B2: human VEGF-A (ligand)
chain: APMAEGGGQNHHEVVKFMDVYQRSYCHPIETLVDIFQEYPDEIEYIFKPSCVPLMRCGGCCNDEGLECVPTEESNITMQIMRIKPHQGQHIGEMSFLQHNKCECRPKKDRARQENPCGPCSERRKHLFVQDPQTCKCSCKNTDSRCKARQLELNERTCRCDKPRR
notes: also called hVEGF-A

Key:
Cetuximab-VEGF-Grab [1] = molecular target: T1, Cetuximab-VEGF-Grab; assay: BLI (BLItz), biotinylated P1GF on streptavidin biosensor, 1:1 model
T1 construct: Made in Freestyle293F cells and purified on Protein A; also called Cet-Grab; scFv-Cetuximab-VEGF-Grab
Method: (§1) Thereafter, to measure the dissociation rate (koff), each reaction product was allowed to react in a PBS buffer for 2 minutes. The final dissociation constant was calculated as a ratio of koff/kon. Sensorgrams were analyzed with the global fitting function using a 1:1 binding model (grouped by color and Rmax).

Cetuximab-VEGF-Grab [2] = molecular target: T1, Cetuximab-VEGF-Grab; assay: BLI; EGFR ECD pre-bound to Cet-Grab, then P1GF (reverse order); EGFR ECD pre-bound to Cet-Grab
Cetuximab-VEGF-Grab [3] = molecular target: T1, Cetuximab-VEGF-Grab; assay: BLI (BLItz), biotinylated VEGF-A on streptavidin biosensor, 1:1 model
Method: as §1

Cetuximab-VEGF-Grab [4] = molecular target: T1, Cetuximab-VEGF-Grab; assay: BLI; EGFR ECD pre-bound to Cet-Grab, then VEGF-A (reverse order); EGFR ECD pre-bound to Cet-Grab

| Binder | Kd (Cetuximab-VEGF-Grab [1]) [nM] | Kd (Cetuximab-VEGF-Grab [2]) [nM] | Kd (Cetuximab-VEGF-Grab [3]) [nM] | Kd (Cetuximab-VEGF-Grab [4]) [nM] |
| --- | --- | --- | --- | --- |
| B1 | 1.59 | 1.11 |  |  |
| B2 |  |  | 1.04 | 1.17 |
